Reference: patent US20090203538A1 (INSTITUTE FOR ANTIBODIES, published 2009)

How the values were obtained:
Assay in all cases: antigen assigned by the filing's classifying and identification method; details for this clone not given
[1] = target: T1, BCAM (basal cell adhesion molecule) (Lutheran blood group) (Homo sapiens (Human), UniProt P50895 32-628, limits assumed)
T1 construct: also called CD239 antigen
T1 sequence: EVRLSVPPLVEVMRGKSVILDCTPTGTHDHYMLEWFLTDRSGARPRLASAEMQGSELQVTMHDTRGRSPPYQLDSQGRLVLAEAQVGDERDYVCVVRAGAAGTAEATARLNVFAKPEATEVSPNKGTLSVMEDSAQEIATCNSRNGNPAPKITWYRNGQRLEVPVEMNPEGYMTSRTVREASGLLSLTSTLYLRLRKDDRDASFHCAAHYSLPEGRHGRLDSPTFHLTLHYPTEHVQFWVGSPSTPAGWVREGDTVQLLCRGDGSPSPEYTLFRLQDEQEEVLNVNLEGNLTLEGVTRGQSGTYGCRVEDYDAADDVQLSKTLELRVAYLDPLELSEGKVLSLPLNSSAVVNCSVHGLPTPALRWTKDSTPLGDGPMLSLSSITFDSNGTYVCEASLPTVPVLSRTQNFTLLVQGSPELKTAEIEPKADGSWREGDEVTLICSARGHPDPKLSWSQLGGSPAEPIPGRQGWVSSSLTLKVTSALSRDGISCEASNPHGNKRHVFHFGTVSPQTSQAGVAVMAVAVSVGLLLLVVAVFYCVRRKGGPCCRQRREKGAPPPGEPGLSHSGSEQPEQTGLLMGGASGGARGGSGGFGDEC

[2] = target: T2, CD46 antigen (Homo sapiens (Human), UniProt P15529 35-392)
T2 construct: Native protein on cancer cell lines; also called MCP (Membrane Co-factor Protein); gp45-70
T2 sequence: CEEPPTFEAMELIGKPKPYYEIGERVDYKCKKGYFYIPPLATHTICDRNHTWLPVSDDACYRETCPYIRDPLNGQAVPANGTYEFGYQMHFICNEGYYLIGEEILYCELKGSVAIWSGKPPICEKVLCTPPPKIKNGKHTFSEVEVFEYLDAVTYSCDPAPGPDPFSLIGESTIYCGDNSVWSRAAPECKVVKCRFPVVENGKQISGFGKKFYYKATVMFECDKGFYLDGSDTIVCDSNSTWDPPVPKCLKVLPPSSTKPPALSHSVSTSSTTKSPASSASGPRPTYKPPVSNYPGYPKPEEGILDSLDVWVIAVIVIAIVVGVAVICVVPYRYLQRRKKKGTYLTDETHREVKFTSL

[3] = target: T3, IgSF4 (immunoglobulin superfamily member 4) (Homo sapiens, UniProt Q9BY67 45-442)
T3 construct: Native protein on cancer cell lines; also called BL2; ST17
T3 sequence: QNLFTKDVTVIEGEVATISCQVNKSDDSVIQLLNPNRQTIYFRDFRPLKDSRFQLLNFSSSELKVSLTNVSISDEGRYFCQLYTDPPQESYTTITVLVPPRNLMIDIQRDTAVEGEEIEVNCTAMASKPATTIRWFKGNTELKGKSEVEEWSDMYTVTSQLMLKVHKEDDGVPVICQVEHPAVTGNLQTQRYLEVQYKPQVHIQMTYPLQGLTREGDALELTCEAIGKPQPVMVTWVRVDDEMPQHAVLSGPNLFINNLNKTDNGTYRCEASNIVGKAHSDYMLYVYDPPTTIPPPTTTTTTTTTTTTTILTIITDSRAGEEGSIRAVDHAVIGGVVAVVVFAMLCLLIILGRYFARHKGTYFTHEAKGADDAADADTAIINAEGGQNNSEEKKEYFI

B1: 067-024 antibody (antibody, V domains shown)
VH: QVQLVQSGAEVKKPGASVKVSCKASGYTFTSYYMHWVRQAPGQGLEWMGIINPSGGSTSYAQKFQGRVTMTRDTSTSTVYMELSSLRSEDTAVYYCARAKRRGSAFDIWGQGTTVTVSR
VL: SSELTQDPAVSVALGQTVRITCQGDSLRSYYASWYQQKPGQAPVLVIYGKNNRPSGIPDRFSGSSSGNTASLTITGAQAEDEADYYCNSRDSSGNHVVFGGGTKLTVLG
notes: Clone of the scFv-CL-cp3 phage library
binding result [1]: binds

B2: 066-069 antibody (antibody, V domains shown)
VH: QVQLVQSEAEVKKPGESLKISCKGSGYSFTSYWIGWVRQMPGKGLEWMGIIYPGDSDTRYSPSFQGQVTISADKSISTAYLQWSSLKASDTAMYYCARTIGLGAFDIWGQGTTVTVSR
VL: SSELTQDPAVSVALGQTVRITCQGDSLRSYYASWYQQKPGQAPVLVIYGKNNRPSGIPDRFSGSSSGNTASLTITGAQAEDEADYYCNSRDSSGNHHYVFGTGTKVTVLG
notes: as for B1
binding result [2]: binds

B3: 076-048 antibody (antibody, V domains shown)
VH: QVQLVQSGAEVKKPGSSVKVSCRASGGTFSSYAISWVRQAPGQGLEWMGGIIPIFGTANYAQKFQGRVTITADKSTSTAYMELSSLRSEDTAVYYCAGDISRGSSWYGYYFDYWGQGTLVTVSR
VL: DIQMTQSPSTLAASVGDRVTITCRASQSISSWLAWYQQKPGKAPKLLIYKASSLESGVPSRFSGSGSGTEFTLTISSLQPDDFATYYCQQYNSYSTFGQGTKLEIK
notes: as for B1
binding result [3]: binds
